Target: Recombinant Interleukin-1 beta (IL-1B) (human) (UniProt P01584)
Experiment: cell-based or functional assay

UniProt P01584, sequence (P01584 117-269 limits assumed): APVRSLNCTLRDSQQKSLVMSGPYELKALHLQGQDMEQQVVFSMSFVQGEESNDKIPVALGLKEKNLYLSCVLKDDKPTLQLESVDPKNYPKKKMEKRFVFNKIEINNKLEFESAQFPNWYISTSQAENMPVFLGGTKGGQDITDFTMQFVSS

Bioassay [%] (relative potency vs ACZ885 reference standard); reconstituted lyophilisate F1, stored at 5°C: 103%
Bioassay [%] (relative potency vs ACZ885 reference standard); reconstituted lyophilisate F1, stored at 25°C: 99%
Bioassay [%] (relative potency vs ACZ885 reference standard); reconstituted lyophilisate F1, stored at 40°C: 93%
Bioassay [%] (relative potency vs ACZ885 reference standard); reconstituted lyophilisate F3, stored at 5°C: 101%
Bioassay [%] (relative potency vs ACZ885 reference standard); reconstituted lyophilisate F3, stored at 25°C: 91%
Bioassay [%] (relative potency vs ACZ885 reference standard); reconstituted lyophilisate F3, stored at 40°C: 95%
Reporter Gene Assay [%] (relative potency vs ACZ885 reference standard); liquid formulation 150 mg/mL, start: 121%
Reporter Gene Assay [%] (relative potency vs ACZ885 reference standard); liquid formulation, 5°C, 4 months: 97%
Reporter Gene Assay [%] (relative potency vs ACZ885 reference standard); liquid formulation, 5°C, 10 months: 99%
Reporter Gene Assay [%] (relative potency vs ACZ885 reference standard); liquid formulation, 5°C, 16.5 months: 110%
Reporter Gene Assay [%] (relative potency vs ACZ885 reference standard); liquid formulation, 5°C, 24 months (n=4): 99%
Reporter Gene Assay [%] (relative potency vs ACZ885 reference standard); liquid formulation, 25°C, 4 months: 100%
Reporter Gene Assay [%] (relative potency vs ACZ885 reference standard); liquid formulation, 25°C, 10 months: 85%
Reporter Gene Assay [%] (relative potency vs ACZ885 reference standard); liquid formulation, 25°C, 16.5 months: 74%
Reporter Gene Assay [%] (relative potency vs ACZ885 reference standard); liquid formulation, 25°C, 24 months (n=4): 70%
Reporter Gene Assay [%] (relative potency vs ACZ885 reference standard); liquid formulation, 40°C, 2 months: 78%
Reporter Gene Assay [%] (relative potency vs ACZ885 reference standard); liquid formulation, 40°C, 4 months: 53%
Substance: ACZ885 antibody

— patent publication WO2010066762A1
